In the RNAGym collection of RNA variant scans (doi:10.7554/elife.80360):

B1: Hairpin Ribozyme (parent)
chain: GUCCUCUUUCACGUGCGCGUGAAAGAGAGAAGUGAACCAGAGAAACACACGUUGUGGUAUAUUACCUGGUA

Variants of: B1
Test: self-cleavage, relative activity (ratio to wild type); higher = more cleavage; co-transcriptional

| Variant | self-cleavage |
| --- | --- |
| A30G U33G | 0.0952 |
| G32A C38A | 0.115 |
| A31C C48U | 0.159 |
| A31C U63G | 0.119 |
| A31C U63C | 0.23 |
| G32A A41G | 0.183 |
| G32A A41C | 0.145 |
| G32A U58C | 0.184 |
| G32A U58A | 0.0567 |
| G32A U58G | 0.16 |
| G32A U62A | 0.162 |
| G32A U62C | 0.128 |
| A31G G32U | 0.121 |
| G32A C50G | 0.179 |
| G32A C50A | 0.168 |
| G32C A59C | 0.198 |
| G32U A43U | 0.148 |
| A31U C38U | 0.157 |
| G32U G42A | 0.153 |
| A30U C38U | 0.232 |
| A30U C38A | 0.0692 |
| A30U C38G | 0.108 |
| A30G U53A | 0.0621 |
| A30G U53C | 0.288 |

| Variant | self-cleavage |
| --- | --- |
| A31G A35C | 0.6 |
| A31G U70C | 0.751 |
| A31G U70G | 0.376 |
| G32U A61U | 0.109 |
| G32A C66U | 0.177 |
| G32U G51U | 0.119 |
| G32U G51A | 0.179 |
| A30G C38G | 0.149 |
| A30G C38A | 0.0519 |
| G32U G40C | 0.0975 |
| G32U G40U | 0.152 |
| G32C G57C | 0.113 |
| A31C A35U | 0.181 |
| A31C A35C | 0.069 |
| G32A G42C | 0.124 |
| G32A G42A | 0.0757 |
| A30G C46G | 0.185 |
| G32A A35C | 0.177 |
| G32C C65U | 0.0495 |
| G32A G54A | 0.156 |
| G32A G54U | 0.136 |
| A30G U55C | 0.0826 |
| G32A G51U | 0.122 |
| G32A G51C | 0.113 |

| Variant | self-cleavage |
| --- | --- |
| A31G U62G | 0.199 |
| A30U U70G | 0.117 |
| A31C A61G | 0.0877 |
| A31C G51U | 0.149 |
| G32A U52C | 0.101 |
| A31U G68C | 0.175 |
| G32U A35G | 0.0968 |
| G32U A35U | 0.191 |
| G32U A71G | 0.214 |
| G32U A71C | 0.206 |
| A30G A61U | 0.153 |
| A30G G32A | 0.137 |
| A30G G32C | 0.106 |
| A30G G32U | 0.124 |
| A30U U33A | 0.0677 |
| G32C C38G | 0.0953 |
| G32C C38U | 0.181 |
| A30G G42U | 0.0793 |
| G32U C66U | 0.194 |
| G32A U70A | 0.139 |
| A30U A71G | 0.286 |
| G32A U33G | 0.137 |
| A30G A47U | 0.131 |
| A31C A45C | 0.0871 |

| Variant | self-cleavage |
| --- | --- |
| A31G G34U | 1.54 |
| A31G G34C | 1.44 |
| A31C A41C | 0.0332 |
| A31C U33A | 0.241 |
| A30U G57A | 0.0986 |
| A30U G57U | 0.175 |
| A31U A61G | 0.159 |
| G32C U70C | 0.234 |
| A31U C65U | 0.121 |
| A31U C65G | 0.166 |
| A31C A36U | 0.0851 |
| G32A A64G | 0.142 |
| A31C A44G | 0.174 |
| A31C A44U | 0.109 |
| A31U C46G | 0.212 |
| A30G A36G | 0.0448 |
| A30G A36C | 0 |
| A30G A39G | 0.127 |
| A30G A39C | 0.106 |
| A30U G42U | 0.119 |
| A30U G42C | 0.114 |
| G32C G34U | 0.163 |
| A31U U62A | 0.115 |
| A30U G69C | 0.0465 |

| Variant | self-cleavage |
| --- | --- |
| G32C U58A | 0.116 |
| A30U C48U | 0.197 |
| G32U C46A | 0.272 |
| G32U C46G | 0.14 |
| G32C U63A | 0.208 |
| G32C U63G | 0.035 |
| G32C U63C | 0.0888 |
| A31G A43U | 0.11 |
| A31U U55C | 0.0975 |
| A30U U63G | 0.0835 |
| A31C C66A | 0.146 |
| A31C C66G | 0.102 |
| A30U G32U | 0.0889 |
| A30U G32A | 0.183 |
| A31U A47C | 0.109 |
| G32C A45U | 0.121 |
| G32A A36C | 0.145 |
| G32A A36U | 0.111 |
| G32A A36G | 0.0788 |
| A31G A45G | 0.0922 |
| G32A A39G | 0.107 |
| G32A A39C | 0.0881 |
| A30U U62C | 0.144 |
| A30U U62A | 0.177 |

| Variant | self-cleavage |
| --- | --- |
| A30U U62G | 0.108 |
| A30U G34U | 0.805 |
| A30U G34C | 0.42 |
| A31U U60C | 0.103 |
| A30G G51A | 0.254 |
| A31C A59G | 0.132 |
| A31C A59C | 0.103 |
| A31G U67A | 0.0798 |
| A31G G51A | 0.927 |
| G32C C37U | 0.131 |
| A30U A47U | 0.0724 |
| G32A A43U | 0.0753 |
| A30U U52C | 0.135 |
| A30U U52G | 0.0874 |
| A31G G68C | 0.115 |
| A31G G68A | 0.189 |
| G32C U60C | 0.0463 |
| A31G U63G | 0.135 |
| A31U G40C | 0.154 |
| A31U G40U | 0.182 |
| A31C G69C | 0.0986 |
| A31U C48U | 0.109 |
| A31U C48G | 0.0916 |
| G32U A39G | 0.0986 |

| Variant | self-cleavage |
| --- | --- |
| G32U A39C | 0.116 |
| A30C U63G | 0 |
| A30C U63A | 0.267 |
| A30G A41C | 0.201 |
| G32U G34C | 0.18 |
| A30G G56C | 0.0815 |
| G32A C37U | 0.129 |
| G32A C37A | 0.115 |
| G32C G40A | 0.164 |
| A30G U62A | 0.0629 |
| A31C G56A | 0.148 |
| A31U G34A | 0.0803 |
| A31U G42A | 0.0839 |
| G32C C46G | 0.0694 |
| A30G C37G | 0.0733 |
| A31U U58G | 0.18 |
| G32C A39U | 0.174 |
| G32C A44G | 0.137 |
| G32A U55A | 0.107 |
| A30G G69C | 0.0841 |
| A30G G69A | 0.12 |
| A31C A71U | 0.1 |
| A31C A43U | 0.0953 |
